Assay results published in publication PMC2901902 (Nature, 2010).

Molecular target: human DPF3b PHD12 (tandem PHD finger) (Homo sapiens, UniProt Q92784)
Test: DPF3b PHD12 binding to modified histone peptides
Conditions: H3 peptide residues 1–20, versus H3K14ac

human DPF3b PHD12 (tandem PHD finger), sequence (Q92784 261-372): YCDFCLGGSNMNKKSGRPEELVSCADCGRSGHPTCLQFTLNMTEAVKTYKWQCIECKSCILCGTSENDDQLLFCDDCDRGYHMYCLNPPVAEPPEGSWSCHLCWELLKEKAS

- reduction in affinity when H3 is not acetylated at K14: 4 fold
Substance: H3 peptide (residues 1–20): H3 peptide (residues 1–20), not acetylated at K14
